Tested on: T1, fluorogenic peptide CAGSGSGPR-AMC (AMC=7-amino-4-methyl-coumarin)
T1 sequence: CAGSGSGPR

Question: For trypsin, which “release of fluorescent AMC (cleavage of the immobilized fluorogenic peptide)” value is on record?
Answer: Adding trypsin to these disks results in the release of fluorescent AMC

Source: patent US20070111222
